# Test results as given in publication PMC10706272, “Improving the Thermostability of Thermomyces lanuginosus Lipase by Restricting the Flexibility of N-Terminus and C-Terminus Simultaneously via the 25-Loop Substitutions” (International Journal of Molecular Sciences, 2023).
# Substrate: CCCCCCCCCCCCCCCC(=O)Oc1ccc([N+](=O)[O-])cc1
# Test: initial-rate hydrolysis of pNPP, p-nitrophenol release, Michaelis-Menten fit
# Type: biochemical, Thermomyces lanuginosus
# Conditions: 37 °C, pH 9.0, Tris-HCl 100 mM, apparent Km, pNPP 0.25-10 mM
# Description: initial-rate hydrolysis of pNPP, p-nitrophenol release, Michaelis-Menten fit on TLL (Thermomyces lanuginosus lipase)
protein,measurement,value
TLL (Thermomyces lanuginosus lipase) (Thermomyces lanuginosus) (protein) EVSQDLFNQFNLFAQYSAAAYCGKNNDAPAGTNITCTGNACPEVEKADATFLYSFEDSGVGDVTGFLALDNTNKLIVLSFRGSRSIENWIGNLNFDLKEINDICSGCRGHDGFTSSWRSVADTLRQKVEDAVREHPDYRVVFTGHSLGGALATVAGADLRGNGYDIDVFSYGAPRVGNRAFAEFLTVQTGGTLYRITHTNDIVPRLPPREFGYSHSSPEYWIKSGTLVPVTRNDIVKIEGIDATGGNNQPNIPDIPAHLWYFGLIGTCL,Km,220 ± 50 µM
same,Vmax,402 µmol/min/mg
same,kcat,594 ± 4 s⁻¹
same,kcat/Km,2.72e+06 ± 54000 M⁻¹ s⁻¹
